Laboratory results: PMC4920197, “SMN and coilin negatively regulate dyskerin association with telomerase RNA” (Biology Open, 2016)

Target: T1, GFP-tagged SMN E134K (human, UniProt Q16637 1-294, E134K)
T1 construct: survivor of motor neuron protein (SMN) with the clinically defined SMA patient mutation E134K, made from GFP-SMN; source: HeLa, transfected (FuGENE HD), in lysate
Assay: co-IP; HeLa cells transfected 24 h with GFP vector or GFP-tagged coilin or SMN constructs; lysate in mRIPA buffer immunoprecipitated with anti-GFP antibody; endogenous dyskerin or NAF1 detected by western blot
Conditions: partners not purified

T1 sequence (Q16637 whole entry E134K): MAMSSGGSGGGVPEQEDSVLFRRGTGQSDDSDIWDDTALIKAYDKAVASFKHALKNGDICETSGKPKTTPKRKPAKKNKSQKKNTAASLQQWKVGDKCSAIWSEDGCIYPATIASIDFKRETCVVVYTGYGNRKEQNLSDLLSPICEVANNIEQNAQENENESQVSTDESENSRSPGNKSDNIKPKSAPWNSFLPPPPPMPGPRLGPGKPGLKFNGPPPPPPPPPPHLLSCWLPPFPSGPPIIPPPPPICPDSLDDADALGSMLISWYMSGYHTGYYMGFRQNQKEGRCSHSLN

decrease of dyskerin in the SMN complex relative to WT SMN: ~50%
B1: dyskerin (natural protein, human (endogenous in HeLa), UniProt O60832 1-514, looked up)
chain: MADAEVIILPKKHKKKKERKSLPEEDVAEIQHAEEFLIKPESKVAKLDTSQWPLLLKNFDKLNVRTTHYTPLACGSNPLKREIGDYIRTGFINLDKPSNPSSHEVVAWIRRILRVEKTGHSGTLDPKVTGCLIVCIERATRLVKSQQSAGKEYVGIVRLHNAIEGGTQLSRALETLTGALFQRPPLIAAVKRQLRVRTIYESKMIEYDPERRLGIFWVSCEAGTYIRTLCVHLGLLLGVGGQMQELRRVRSGVMSEKDHMVTMHDVLDAQWLYDNHKDESYLRRVVYPLEKLLTSHKRLVMKDSAVNAICYGAKIMLPGVLRYEDGIEVNQEIVVITTKGEAICMAIALMTTAVISTCDHGIVAKIKRVIMERDTYPRKWGLGPKASQKKLMIKQGLLDKHGKPTDSTPATWKQEYVDYSESAKKEVVAEVVKAPQVVAEAAKTAKRKRESESESDETPPAAPQLIKKEKKKSKKDKKAKAGLESGAEPGDGDSDTTKKKKKKKKAKEVELVSE
notes: dyskerin, endogenous in HeLa cells; also called telomerase and box H/ACA scaRNP core protein dyskerin; source: endogenous, HeLa lysate
